Source: US20210030857A1 (NGM BIOPHARMACEUTICALS, published 2021)
Values joined by “and” are separate entries in the source; they are usually repeats but may differ in a detail not shown here. Identical values can stand only once. Like-named read-outs stand apart in the source and are kept apart here.

T1: mouse beta klotho expressed on cells (mouse (Mus musculus), UniProt Q99N32 1-1043)
T1 construct: also called Mouse KLB
T1 sequence: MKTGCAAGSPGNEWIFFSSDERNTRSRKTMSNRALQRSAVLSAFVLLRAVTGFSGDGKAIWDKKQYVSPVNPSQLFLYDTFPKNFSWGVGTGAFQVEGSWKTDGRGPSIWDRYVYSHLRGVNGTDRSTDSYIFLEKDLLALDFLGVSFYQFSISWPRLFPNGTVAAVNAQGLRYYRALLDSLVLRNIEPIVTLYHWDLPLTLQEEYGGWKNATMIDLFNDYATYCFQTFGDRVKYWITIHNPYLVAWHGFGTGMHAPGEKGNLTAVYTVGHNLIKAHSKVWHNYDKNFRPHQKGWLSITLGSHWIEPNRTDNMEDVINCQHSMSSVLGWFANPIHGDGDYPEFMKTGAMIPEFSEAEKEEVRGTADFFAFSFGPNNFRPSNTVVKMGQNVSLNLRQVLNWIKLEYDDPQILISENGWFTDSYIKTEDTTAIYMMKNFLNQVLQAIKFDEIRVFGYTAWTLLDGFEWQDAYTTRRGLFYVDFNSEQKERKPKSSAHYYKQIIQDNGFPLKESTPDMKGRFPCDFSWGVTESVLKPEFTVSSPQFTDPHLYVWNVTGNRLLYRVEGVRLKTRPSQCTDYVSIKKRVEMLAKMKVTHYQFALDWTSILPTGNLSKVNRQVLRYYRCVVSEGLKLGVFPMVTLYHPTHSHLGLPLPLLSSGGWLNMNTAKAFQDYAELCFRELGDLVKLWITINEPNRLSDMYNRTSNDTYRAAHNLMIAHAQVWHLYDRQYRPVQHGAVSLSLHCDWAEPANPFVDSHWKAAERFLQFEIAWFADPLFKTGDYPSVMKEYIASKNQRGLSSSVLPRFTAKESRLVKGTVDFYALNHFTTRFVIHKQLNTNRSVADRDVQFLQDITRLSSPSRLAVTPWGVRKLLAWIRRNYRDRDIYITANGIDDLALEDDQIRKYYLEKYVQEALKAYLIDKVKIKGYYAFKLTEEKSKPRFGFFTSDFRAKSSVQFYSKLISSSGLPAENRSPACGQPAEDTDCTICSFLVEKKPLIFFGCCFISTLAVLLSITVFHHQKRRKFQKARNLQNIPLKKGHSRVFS

T2: human beta klotho protein (soluble, used in Biacore) (human, UniProt Q86Z14 53-997, limits assumed)
T2 construct: also called HuKLB; huKLB
T2 sequence: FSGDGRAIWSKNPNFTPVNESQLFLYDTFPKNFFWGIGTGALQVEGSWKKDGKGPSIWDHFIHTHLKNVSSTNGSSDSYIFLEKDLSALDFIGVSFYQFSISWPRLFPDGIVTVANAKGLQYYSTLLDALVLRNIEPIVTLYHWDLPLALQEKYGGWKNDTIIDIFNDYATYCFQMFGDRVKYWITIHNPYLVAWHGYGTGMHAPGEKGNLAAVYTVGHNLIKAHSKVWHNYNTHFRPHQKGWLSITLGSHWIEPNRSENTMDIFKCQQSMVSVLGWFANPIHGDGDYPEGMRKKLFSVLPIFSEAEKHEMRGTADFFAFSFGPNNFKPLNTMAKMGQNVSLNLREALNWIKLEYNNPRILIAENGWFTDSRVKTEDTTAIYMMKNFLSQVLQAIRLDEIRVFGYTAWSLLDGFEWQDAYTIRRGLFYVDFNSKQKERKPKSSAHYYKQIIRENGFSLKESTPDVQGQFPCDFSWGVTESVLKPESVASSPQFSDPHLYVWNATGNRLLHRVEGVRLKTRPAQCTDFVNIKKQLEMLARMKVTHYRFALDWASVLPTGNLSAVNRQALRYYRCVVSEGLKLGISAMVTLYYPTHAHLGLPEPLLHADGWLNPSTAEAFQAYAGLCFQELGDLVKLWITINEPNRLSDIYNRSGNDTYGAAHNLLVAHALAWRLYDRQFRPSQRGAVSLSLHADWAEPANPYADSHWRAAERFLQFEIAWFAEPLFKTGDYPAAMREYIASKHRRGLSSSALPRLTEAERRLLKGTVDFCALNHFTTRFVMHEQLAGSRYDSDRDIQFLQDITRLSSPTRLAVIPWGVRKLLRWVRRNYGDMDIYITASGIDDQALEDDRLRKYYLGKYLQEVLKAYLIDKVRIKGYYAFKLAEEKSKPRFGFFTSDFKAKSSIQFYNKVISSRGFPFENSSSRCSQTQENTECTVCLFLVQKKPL

B1: humanized 5H23 antibody (VH SEQ ID NO: 271 and VL SEQ ID NO: 276) (antibody, V domains shown)
VH: QVQLQQSGAEVKKPGASVKVSCKASGYTFTSYDINWVRQAPGQGLEWIGWIYPGDGSTKYNEKFKGKATITRDTSASTAYMELSSLRSEDTAVYFCARSDYYGSRSFAYWGQGTLVTVSS
VL: DIVMTQSPDSLAVSLGERATINCRASKSVSTSGYVYMHWYQQKPGQPPKLLIYLASYLESGVPDRFSGSGSGTDFTLTISSVQAEDVAVYYCQHSRDLTFPFGGGTKLEIK
notes: also called h5H23; h5H23 (Prep 1)
B2: antibody 5H23 (antibody, V domains shown)
VH: QVQLQQSGPELVKPGALVKISCKASGYTFTSYDINWVKQRPGQGLEWIGWIYPGDGSTKYNEKFKGKATLTADKSSRTAYMQLSSLTSENSAVYFCARSDYYGSRSFAYWGQGTLVTVSA
VL: DIVLTQSPASLAVSLGQRATISCRASKSVSTSGYVYMHWNQQKPGQPPKLLIYLASYLESGVPARFSGSGSGTDFTLNIHPVEEEDAAIYYCQHSRDLTFPFGGGTKLEIK
notes: Murine monoclonal antibody from hybridoma; also called 5H23-Alexa647 (labelled form)

How the values were obtained:
[1] = molecular target: T3, human beta klotho / human FGFR1c receptor complex on cells (human, UniProt Q86Z14 1-1044; P11362 22-822); assay: cell-based or functional assay
Target sequence in this assay (Q86Z14 whole entry, chain 1 of 2): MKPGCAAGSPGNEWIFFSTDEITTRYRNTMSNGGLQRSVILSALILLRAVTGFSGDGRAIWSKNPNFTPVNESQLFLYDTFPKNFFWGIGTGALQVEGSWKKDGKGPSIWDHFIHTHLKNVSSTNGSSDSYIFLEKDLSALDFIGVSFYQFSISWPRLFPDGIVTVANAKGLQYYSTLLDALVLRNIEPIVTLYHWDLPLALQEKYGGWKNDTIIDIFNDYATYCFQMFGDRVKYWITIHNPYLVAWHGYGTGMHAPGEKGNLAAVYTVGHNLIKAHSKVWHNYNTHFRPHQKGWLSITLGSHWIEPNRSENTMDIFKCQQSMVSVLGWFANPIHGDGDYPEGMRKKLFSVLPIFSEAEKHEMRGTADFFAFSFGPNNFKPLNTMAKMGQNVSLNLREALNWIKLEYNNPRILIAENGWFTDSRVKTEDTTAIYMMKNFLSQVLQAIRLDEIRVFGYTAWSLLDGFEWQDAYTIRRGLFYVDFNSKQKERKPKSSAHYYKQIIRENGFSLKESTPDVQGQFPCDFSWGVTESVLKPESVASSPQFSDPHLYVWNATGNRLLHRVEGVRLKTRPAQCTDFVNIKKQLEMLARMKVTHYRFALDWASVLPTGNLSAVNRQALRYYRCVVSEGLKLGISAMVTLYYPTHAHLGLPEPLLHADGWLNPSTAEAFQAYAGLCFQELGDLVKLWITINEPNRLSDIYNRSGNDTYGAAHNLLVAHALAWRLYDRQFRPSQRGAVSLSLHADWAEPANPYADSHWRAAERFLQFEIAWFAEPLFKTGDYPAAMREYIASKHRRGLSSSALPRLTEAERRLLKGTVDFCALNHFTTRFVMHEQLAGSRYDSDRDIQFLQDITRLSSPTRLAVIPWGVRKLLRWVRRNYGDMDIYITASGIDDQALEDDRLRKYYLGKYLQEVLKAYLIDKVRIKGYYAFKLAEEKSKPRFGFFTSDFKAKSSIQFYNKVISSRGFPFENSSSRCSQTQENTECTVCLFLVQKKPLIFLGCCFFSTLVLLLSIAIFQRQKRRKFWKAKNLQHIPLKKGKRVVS
Target sequence in this assay (P11362 22-822 limits assumed, chain 2 of 2): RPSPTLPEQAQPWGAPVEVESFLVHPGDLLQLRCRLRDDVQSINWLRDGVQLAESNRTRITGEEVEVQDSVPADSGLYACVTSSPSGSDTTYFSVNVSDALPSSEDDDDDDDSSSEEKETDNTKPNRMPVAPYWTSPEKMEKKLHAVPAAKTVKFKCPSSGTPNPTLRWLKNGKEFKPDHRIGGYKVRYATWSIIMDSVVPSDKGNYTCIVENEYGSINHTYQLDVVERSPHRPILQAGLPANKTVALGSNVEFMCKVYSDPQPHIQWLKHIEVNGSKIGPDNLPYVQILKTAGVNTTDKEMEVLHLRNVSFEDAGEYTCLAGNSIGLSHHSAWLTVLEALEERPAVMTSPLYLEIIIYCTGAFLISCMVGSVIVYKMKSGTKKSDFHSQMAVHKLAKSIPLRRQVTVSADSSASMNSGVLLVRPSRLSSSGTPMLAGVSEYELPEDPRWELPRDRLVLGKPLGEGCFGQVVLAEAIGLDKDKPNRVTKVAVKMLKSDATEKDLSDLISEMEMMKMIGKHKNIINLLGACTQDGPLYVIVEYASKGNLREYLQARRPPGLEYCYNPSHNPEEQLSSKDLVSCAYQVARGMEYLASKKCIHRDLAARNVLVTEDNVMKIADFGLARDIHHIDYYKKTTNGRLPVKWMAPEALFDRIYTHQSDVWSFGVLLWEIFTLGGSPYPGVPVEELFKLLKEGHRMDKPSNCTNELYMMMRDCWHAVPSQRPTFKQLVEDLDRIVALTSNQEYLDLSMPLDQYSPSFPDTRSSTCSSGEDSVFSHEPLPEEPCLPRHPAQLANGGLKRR

[2] = molecular target: T1, mouse beta klotho expressed on cells; assay: FACS on transfected Expi293 cells
[3] = molecular target: T2, human beta klotho protein (soluble, …); assay: Biacore SPR (as in Example 2)
[4] = molecular target: T3, human beta klotho / human FGFR1c …; assay: cell-based or functional assay; remark: listed apart in the source
Target sequence in this assay (P11362 22-822 limits assumed, one chain of several): as the sequence (P11362 22-822 limits assumed, chain 2 of 2) above

Binder | EC50 adipocyte [1] | EC50 reporter assay [1] | binding result [2] | Kd [3] | EC50-adipocyte [4] | EC50 reporter assay [4]
B1 | 11.2 nM | 0.6 nM | no binding (tested: 1 µg/ml) | 0.64 nM and 0.58 nM |  | 
B2 |  |  |  |  | 3.4 nM | 0.27 nM and 0.51 nM
